Patent publication US20260166166A1 (CURON BIOPHARMACEUTICAL SHANGHAI, published 2026)

Biological target: T1, L1 cell adhesion molecule (L1CAM) on the surface of HeLa cells (human, UniProt P32004 20-1257)
T1 construct: whole, on cells; Endogenous L1CAM of HeLa cells ("HeLa cells that highly express human L1CAM"); also called CD171; human L1CAM
Assay: flow cytometry on HeLa cells, MFI dose-response
Experimental: Humanized anti-L1CAM antibodies (Human IgG1-Kappa) are diluted in complete medium, in a four-fold serial dilution, with 7 concentration gradient points.
HeLa cells are cultured in DMEM complete medium (Corning, 10-013-CVR) containing 10% FBS (Gibco, 10099-141) and 100 U/mL penicillin-streptomycin mixture (Thermofisher, 15140122). When the cell coverage in the culture container reaches 80-90%, TrypLE (Thermofisher, 12604-013) is used to digest the HeLa cells from the culture container, and they are seeded in a 96-well plate (AXYGEN, P-96-450V-C) at a density of 2.2×10⁶ cells/ml, with 100,000 cells (45 μL complete medium) per well. Then, 5 μL of the antibody dilution is added to each well, mixed gently, and the 96-well plate is incubated at 4° C. for 1 hour. Then, 150 μL of PBS (Corning, 21-040-CVC) containing 2% FBS is added to each well, centrifuged at 1400 rpm for 4 minutes, the supernatant is removed, and washed once again. Then, 50 μL of Alexa Fluor 647-labeled goat anti-human fluorescent secondary antibody (Jacksonimmuno, 109-605-088) diluted at 1:800 is added to each well, and the 96-well plate is incubated at 4° C. for 0.5 hours. The cells are washed twice with PBS solution containing 2% FBS, then resuspended in 120 μL of PBS, and the fluorescent signal on the cell surface is detected using a flow cytometer (BD FACS Celesta), obtaining and the median fluorescence intensity (MFI). A dose-response curve is generated, and the half-maximal effective concentration (EC50) is calculated using non-linear regression with GraphPad software.

T1 sequence (P32004 20-1257): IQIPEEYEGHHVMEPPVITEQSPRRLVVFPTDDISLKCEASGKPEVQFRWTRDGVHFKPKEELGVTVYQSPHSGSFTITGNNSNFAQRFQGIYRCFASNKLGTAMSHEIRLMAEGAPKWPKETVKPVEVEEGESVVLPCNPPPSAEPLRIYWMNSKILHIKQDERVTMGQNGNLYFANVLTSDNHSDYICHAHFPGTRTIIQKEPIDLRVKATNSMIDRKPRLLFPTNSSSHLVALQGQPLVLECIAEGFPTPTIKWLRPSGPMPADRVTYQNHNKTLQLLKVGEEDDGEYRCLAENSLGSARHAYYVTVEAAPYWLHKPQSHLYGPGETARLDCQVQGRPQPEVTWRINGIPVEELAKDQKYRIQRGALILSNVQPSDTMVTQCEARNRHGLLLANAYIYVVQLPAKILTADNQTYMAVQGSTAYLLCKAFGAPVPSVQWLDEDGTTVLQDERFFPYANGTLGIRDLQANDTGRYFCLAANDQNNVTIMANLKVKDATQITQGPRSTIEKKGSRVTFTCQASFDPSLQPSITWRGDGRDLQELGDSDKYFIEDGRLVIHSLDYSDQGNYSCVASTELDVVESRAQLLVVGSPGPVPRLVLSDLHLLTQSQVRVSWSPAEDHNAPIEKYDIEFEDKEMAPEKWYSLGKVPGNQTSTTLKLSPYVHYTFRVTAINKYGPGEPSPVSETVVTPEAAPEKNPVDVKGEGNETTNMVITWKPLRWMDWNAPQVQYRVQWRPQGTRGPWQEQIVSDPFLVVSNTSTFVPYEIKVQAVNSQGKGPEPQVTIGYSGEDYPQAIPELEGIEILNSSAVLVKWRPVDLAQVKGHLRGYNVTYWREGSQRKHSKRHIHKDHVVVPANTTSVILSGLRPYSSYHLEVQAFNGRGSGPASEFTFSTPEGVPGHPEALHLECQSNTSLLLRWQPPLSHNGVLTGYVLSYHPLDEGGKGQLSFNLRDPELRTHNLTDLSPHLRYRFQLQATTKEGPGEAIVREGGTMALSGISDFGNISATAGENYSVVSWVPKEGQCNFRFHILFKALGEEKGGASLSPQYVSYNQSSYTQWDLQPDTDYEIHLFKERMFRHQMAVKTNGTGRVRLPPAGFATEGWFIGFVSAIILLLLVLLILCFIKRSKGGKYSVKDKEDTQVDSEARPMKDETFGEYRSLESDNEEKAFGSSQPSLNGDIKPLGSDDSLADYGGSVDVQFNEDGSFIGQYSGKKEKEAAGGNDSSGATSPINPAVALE

B1: hz26A12C1H4L3 (antibody, human IgG1, kappa, V domains shown)
VH: QVQLVQSGAEVKKPGSSVKVSCKASGYTFTNYWIQWVRQAPGQGLEWIGYINPSTYYSDYNQKFQGRVTLTADKSTSTAYMELSSLRSEDTAVYYCARRQFGLPLFDYWGQGTTVTVSS
VL: DIQMTQSPSSLSASVGDRVTITCRASQDVGTAVAWYQQKPGKVPKLLIYWASTLHSGVPSRFSGSGSGTDFTLTISSLQPEDVATYFCQQYSNYPLTFGGGTKVEIKR
notes: also called humanized anti-L1CAM antibody
An EC50 of 0.738 nM was found for B1 in this work.

B2: hz46F1D5H4L3 (antibody, human IgG1, kappa, V domains shown)
VH: QVQLVQSGAEVKKPGSSVKVSCKASGYTFTRYWIQWVRQAPGQGLEWMGYINPSTGYTDYNQKFQGRVTITADKSTSTAYMELSSLRSEDTAVYYCARRHLGLPLFDYWGQGTTVTVSS
VL: DIQMTQSPSSVSASVGDRVTITCRASQDVGTAVAWYQQKPGKAPKLLIYWASSLHSGVPSRFSGSGSGTDFTLTISSLQPEDFATYFCQQYSNYPLTFGGGTKVEIKR
notes: as for B1
An EC50 of 1.27 nM was found for B2 in this work.

B3: hz49E10H1H5L6 (antibody, human IgG1, kappa, V domains shown)
VH: DVQLQESGPGLVKPSQTLSLTCTVSGGSISSDYAWNWIRQPPGKGLEWMGYITYSGTTTYNPSLKSRITISRDTSKNQFSLKLSSVTAADTAVYYCARDHYGNYAYFDYWGQGTTVTVSS
VL: DIQMTQSPSSLSASVGDRVTITCRASSSVSFMHWYQQKPGKAPKPWIYASSNLVSGVPSRFSGSGSGTDFTLTISSLQPEDFATYYCQQWSSNPSTFGGGTKVEIKR
notes: as for B1
An EC50 of 0.404 nM was found for B3 in this work.

B4: hz103E9B3H5L5 (antibody, human IgG1, kappa, V domains shown)
VH: EVQLVQSGAEVKKPGASVKVSCKASGYTFTSYTMHWVRQAPGQGLEWMGDINPNYGGTSYNEKFKDRVTMTTDTSTSTAYMELRSLRSDDTAVYYCAREGATGTWYFDVWGQGTTVTVSS
VL: DIQMTQSPSSLSASVGDRVTITCSASSSVSFMFWYQQKPGKAPKPLIYLTSNLASGVPSRFSGSGSGTDFTLTISSLQPEDFATYYCQQWRSNPPTFGGGTKVEIKR
notes: as for B1
An EC50 of 1.68 nM was found for B4 in this work.

B5: hz103E9B3H6L5 (antibody, human IgG1, kappa, V domains shown)
VH: EVQLVQSGAEVKKPGASVKVSCKASGYTFTSYTMHWVRQAPGQGLEWMGDINPNYGGTSYNEKFKDRATMTTDTSTSTAYMELRSLRSDDTAVYYCAREGATGTWYFDVWGQGTTVTVSS
VL: DIQMTQSPSSLSASVGDRVTITCSASSSVSFMFWYQQKPGKAPKPLIYLTSNLASGVPSRFSGSGSGTDFTLTISSLQPEDFATYYCQQWRSNPPTFGGGTKVEIKR
notes: as for B1
An EC50 of 1.48 nM was found for B5 in this work.

B6: hz49E10H1H5L7 (antibody, human IgG1, kappa, V domains shown)
VH: DVQLQESGPGLVKPSQTLSLTCTVSGGSISSDYAWNWIRQPPGKGLEWMGYITYSGTTTYNPSLKSRITISRDTSKNQFSLKLSSVTAADTAVYYCARDHYGNYAYFDYWGQGTTVTVSS
VL: QIQMTQSPSSLSASVGDRVTITCRASSSVSFMHWYQQKPGKAPKPWIYASSNLVSGVPSRFSGSGSGTDYTLTISSLQPEDFATYYCQQWSSNPSTFGGGTKVEIKR
notes: as for B1
An EC50 of 0.377 nM was found for B6 in this work.
